Source: US20250034239A1 (LINNO PHARMACEUTICALS, published 2025)

B1: SLN0062 VHH-OVA-His (VHH)
chain: QVQLVESGGGSVQSGGSLRLSCAASGYTFSRNCMGWFRQTPGKERERVATVYPGGGSTYYADSVKGRFTFSQDNAKNAIYLQMNTLKPEDTGMYYCAASRRIWSCGSGAGSYDYWGQGTQVTVSSGSIGAASMEFCFDVFKELKVHHANENIFYCPIAIMSALAMVYLGAKDSTRTQINKVVRFDKLPGFGDSIEAQCGTSVNVHSSLRDILNQITKPNDVYSFSLASRLYAEERYPILPEYLQCVKELYRGGLEPINFQTAADQARELINSWVESQTNGIIRNVLQPSSVDSQTAMVLVNAIVFKGLWEKAFKDEDTQAMPFRVTEQESKPVQMMYQIGLFRVASMASEKMKILELPFASGTMSMLVLLPDEVSGLEQLESIINFEKLTEWTSSNVMEERKIKVYLPRMKMEEKYNLTSVLMAMGITDVFSSSANLSGISSAESLKISQAVHAAHAEINEAGREVVGSAEAGVDAASVSEEFRADHPFLFCIKHIATNAVLFFGRCVSP
notes: Tested as recombinant VHH-OVA-His; not shown: His tag
B2: SLN12083 VHH-Fc (Fc fusion)
VHH: EVQLVESGGGLVQPGGSLRLSCAASEYTSSSYCMAWIRQAPGKGLEGVAAIDTDGSTSYTDSVKGRFTISRDNSKNTLYLQMNSLRAEDTAVYYCAAAPWLLAYGDYCVTRPDFGEWGQGTLVTVSS
notes: not shown: its position and linker are not fixed for the humanized single VHH
B3: SLN12068 VHH-Fc (Fc fusion)
VHH: EVQLVESGGGLVQPGGSLRLSCAAFEYYYCMGWFRQAPGKGLEGVASFDTSDGSKYYADSVKGRFTISKDNSKNTLYLQMNSLRAEDTAVYYCAARPFYVGGTCLPRLTDFSIWGQGTLVTVSS
notes: as for B2
B4: SLN0064 VHH-OVA-His (VHH)
chain: HVQLVESGGGSVQAGGSLRLSCAASGYSVSWFCMGWFRQAPGLEREGVAVIDVDSIARYGDSVKGRFTISQGNSKDTVYLQMNGLKPEDTAMYYCAAKTERQCRWNWMDWRTYDYPHWGQGTQVTVSSGSIGAASMEFCFDVFKELKVHHANENIFYCPIAIMSALAMVYLGAKDSTRTQINKVVRFDKLPGFGDSIEAQCGTSVNVHSSLRDILNQITKPNDVYSFSLASRLYAEERYPILPEYLQCVKELYRGGLEPINFQTAADQARELINSWVESQTNGIIRNVLQPSSVDSQTAMVLVNAIVFKGLWEKAFKDEDTQAMPFRVTEQESKPVQMMYQIGLFRVASMASEKMKILELPFASGTMSMLVLLPDEVSGLEQLESIINFEKLTEWTSSNVMEERKIKVYLPRMKMEEKYNLTSVLMAMGITDVFSSSANLSGISSAESLKISQAVHAAHAEINEAGREVVGSAEAGVDAASVSEEFRADHPFLFCIKHIATNAVLFFGRCVSP
notes: as for B1
B5: SLN12075 VHH-Fc (Fc fusion)
VHH: EVQLVESGGGLVQPGGSLRLSCAASAYIYSSYCMGWFRQAPGKGLERVSVINSDGRTSYADSVKGRFTISRDNSKNTLYLQMNSLRAEDTAVYYCAAVILPPTDGMEYSCNYPAAEYNYWGQGTLVTVSS
notes: as for B2

Key:
[1] = molecular target: T1, human transferrin (Sigma T3309) (human, UniProt P02787 20-698); test: flow cytometry on HEK293F-hTfR1 cells with human transferrin, pH 6.0; grade by % binding (10% > + ≥ 5%); non-specific binding column also +
T1 construct: mature; same polypeptide; also called native human transferrin; hTf
Procedure: (§1) HEK293F-hTfR1 cells were prepared by transfecting hTfR1-expressing plasmid, with a GFP tag, into HEK293F cells. Stable pool was used for this assay. Briefly, the engineered HEK293F cells expressing hTfR1 were cultured with OPM-293 CD05 medium at 37° C., with 8% CO₂ and saturated humidity in cell shaker. […] The cells were washed twice by centrifugation at 300 g for 5 min at 4° C., before rabbit anti-OVA antibodies and a secondary anti-rabbit IgG-AF647 (all prepared in blocking buffer). The cells were scanned with CytoFLEX (Beckman).

[2] = molecular target: T1, human transferrin (Sigma T3309); test: flow cytometry on HEK293F-hTfR1 cells with human transferrin, pH 7.4; grade by % binding (10% > + ≥ 5%)
Procedure: as §1

human properdin = molecular target: T2, human properdin (human, UniProt P27918 28-469, biotinylated); test: ELISA on biotinylated truncated variants of human properdin, VHH-Fc at 10 µg/ml
T2 construct: Recombinant, made in house; tag not described; In the hemolysis assays the target is the properdin of human serum; also called human properdin-biotin; biotin human Properdin
Procedure: 96-well immunoplates were coated with 100 μl/well 1 μg/ml streptavidin and incubate at 4° C. overnight. Wells were washed with PBST for 3 times and blocked with 200 μl of 1% BSA/PBS at RT for 1 h. […] Plates were washed with PBST for 3 times, 100 μl/well 10 μg/ml VHH-Fcs were added and incubate at RT for 1 h. Plates were washed with PBST for 3 times and add 100 μl goat anti-human Fc-HRP (Sigma, A0170) diluted 1/5000 in 1% BSA/PBST to each well and incubate at RT for 1 h. Plates were then washed as before and add 100 μl TMB substrate and incubate at RT for 15 min. 100 μl per well stop solution was added to stop the reaction, and the plates were read with microplate reader at 450 nm.

T1 sequence (P02787 20-698): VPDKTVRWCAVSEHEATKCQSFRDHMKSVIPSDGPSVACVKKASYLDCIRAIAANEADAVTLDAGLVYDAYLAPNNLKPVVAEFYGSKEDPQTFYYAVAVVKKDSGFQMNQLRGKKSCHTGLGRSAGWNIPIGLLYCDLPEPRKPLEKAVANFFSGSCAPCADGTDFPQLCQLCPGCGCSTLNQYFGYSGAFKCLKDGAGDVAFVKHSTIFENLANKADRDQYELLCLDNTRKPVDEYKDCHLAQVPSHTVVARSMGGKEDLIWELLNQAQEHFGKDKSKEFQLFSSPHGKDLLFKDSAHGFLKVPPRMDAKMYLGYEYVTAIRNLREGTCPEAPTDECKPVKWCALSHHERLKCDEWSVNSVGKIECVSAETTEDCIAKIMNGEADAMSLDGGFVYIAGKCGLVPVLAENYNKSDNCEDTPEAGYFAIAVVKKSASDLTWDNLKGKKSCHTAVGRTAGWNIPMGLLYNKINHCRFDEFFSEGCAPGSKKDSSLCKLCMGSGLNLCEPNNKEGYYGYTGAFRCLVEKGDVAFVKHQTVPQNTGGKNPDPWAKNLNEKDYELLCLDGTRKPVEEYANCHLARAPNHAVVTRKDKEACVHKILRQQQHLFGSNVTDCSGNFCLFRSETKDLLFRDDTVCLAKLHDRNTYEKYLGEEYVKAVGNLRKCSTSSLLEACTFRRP
T2 sequence (P27918 28-469 limits assumed): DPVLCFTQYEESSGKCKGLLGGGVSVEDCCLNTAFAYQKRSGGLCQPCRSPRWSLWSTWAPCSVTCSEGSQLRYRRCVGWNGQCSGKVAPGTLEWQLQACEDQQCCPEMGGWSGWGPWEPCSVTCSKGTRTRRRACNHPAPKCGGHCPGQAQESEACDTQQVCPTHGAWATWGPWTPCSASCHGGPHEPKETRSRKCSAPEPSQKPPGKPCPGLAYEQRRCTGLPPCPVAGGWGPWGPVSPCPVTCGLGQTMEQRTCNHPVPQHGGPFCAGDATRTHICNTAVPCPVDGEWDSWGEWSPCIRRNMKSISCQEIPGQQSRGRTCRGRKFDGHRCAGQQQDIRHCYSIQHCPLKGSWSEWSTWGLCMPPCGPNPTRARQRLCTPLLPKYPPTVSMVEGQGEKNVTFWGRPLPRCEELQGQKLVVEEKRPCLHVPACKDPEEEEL

Binder	percent binding (flow cytometry, VHH/Tf on hTfR1-overexpressing cells, pH 6.0) [1] [%]	percent binding (flow cytometry, VHH/Tf on hTfR1-overexpressing cells, pH 7.4) [2] [%]	binding result (human properdin)
B1	5 to 10	5 to 10	
B2			binds
B3			binds
B4	5 to 10	5 to 10	
B5			binds
